Reference: article PMC6300008

Test: LDH release into supernatant, 24 h
Settings: glycan lost; control: WT-transfected BV2 cells plus LPS, co-cultured with neurons

B1: CD200R1 (CD200 receptor 1): N44Q (protein)
parent chain: MFCFWRTSALAVLLIWGVFVAGSSCTDKNQTTQNNSSSPLTQVNTTVSVQIGTKALLCCFSIPLTKAVLITWIIKLRGLPSCTIAYKVDTKTNETSCLGRNITWASTPDHSPELQISAVTLQHEGTYTCETVTPEGNFEKNYDLQVLVPPEVTYFPEKNRSAVCEAMAGKPAAQISWSPDGDCVTTSESHSNGTVTVRSTCHWEQNNVSDVSCIVSHLTGNQSLSIELSRGGNQSLRPYIPYIIPSIIILIIIGCICLLKISGFRKCKLPKLEATSAIEEDEMQPYASYTEKSNPLYDTVTKVEAFPVSQGEVNGTDCLTLSAIGI
**Q.** With B1 as the protein, how does the “other: neuronal death in co-culture” value read?
**A.** The value was “increases”.
